The test has as its target T1, sST2-Fc (mouse, UniProt P14719 27-332).
T1 construct: mouse ST2L (IL-33 receptor), amino acids 27-332, cloned into a pTT5 vector that contains the human IgG4 Fc domain; also called soluble ST2 Fc fusion
T1 sequence (looked up): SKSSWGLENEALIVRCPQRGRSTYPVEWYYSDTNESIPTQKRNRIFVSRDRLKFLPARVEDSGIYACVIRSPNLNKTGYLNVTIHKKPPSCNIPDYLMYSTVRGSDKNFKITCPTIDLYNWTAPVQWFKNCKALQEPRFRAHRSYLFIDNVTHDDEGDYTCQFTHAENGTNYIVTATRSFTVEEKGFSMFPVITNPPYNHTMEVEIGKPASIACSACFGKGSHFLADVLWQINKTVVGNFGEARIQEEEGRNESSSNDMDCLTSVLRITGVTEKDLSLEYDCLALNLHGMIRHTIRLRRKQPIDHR
The test is described as follows: SPR; Biacore T200; antigen (mouse IL-33) immobilised on CM5 by amine coupling; proteins flowed in a 2-fold dilution series for 120 s, dissociation 480 s. The conditions noted are these: both partners purified.

As usually defined, the Kd is a measure of binding affinity in units of concentration. A high value points to weaker binding.

B1: mouse IL-33 (ligand)
chain: SIQGTSLLTQSPASLSTYNDQSVSFVLENGCYVINVDDSGKDQEQDQVLLRYYESPCPASQSGDGVDGKKLMVNMSPIKDTDIWLHANDKDYSVELQRGDVSPPEQAFFVLHKKSSDFVSFECKNLPGTYIGVKDNQLALVEEKDESCNNIMFKLSKI
As for B1, the Kd turned out to be 174 pM.

These data come from article PMC11117730, “A Novel Bifunctional Fusion Protein (Anti-IL-17A-sST2) Protects against Acute Liver Failure, Modulating the TLR4/MyD88 Pathway and NLRP3 Inflammasome Activation” (Biomedicines, 2024).
